Test results from US20150175705A1.

B1: XHA.06.983 (antibody, from another filing, V domains shown)
VH: DVQLVESGGGLVQPGGSRKLSCAASGFAFSSFGMQWVRQAPEKGLEWVAYISSGSSTIYYADTVKGRFTISRDNPKNTLFLQMTSLRSEDTAMYYCVRSGRDYWGQGTSVTVSS
VL: SIVMTQTPKFLLVSAGDRVTITCKASQGVSNDVAWFQQKPGQSPKLLIYSASTRYTGVPDRLTGSGYGTDFTFTINTVQAEDLAVYFCQQDYTSPTFGGGTKLEIKR

Columns and labels:
[1] = target: T1, human prolactin receptor (PRLR) expressed on cells (human) (UniProt P16471); assay: flow cytometry on CHO-K1 cells expressing human PRLR (clone 1G5)
T1 sequence: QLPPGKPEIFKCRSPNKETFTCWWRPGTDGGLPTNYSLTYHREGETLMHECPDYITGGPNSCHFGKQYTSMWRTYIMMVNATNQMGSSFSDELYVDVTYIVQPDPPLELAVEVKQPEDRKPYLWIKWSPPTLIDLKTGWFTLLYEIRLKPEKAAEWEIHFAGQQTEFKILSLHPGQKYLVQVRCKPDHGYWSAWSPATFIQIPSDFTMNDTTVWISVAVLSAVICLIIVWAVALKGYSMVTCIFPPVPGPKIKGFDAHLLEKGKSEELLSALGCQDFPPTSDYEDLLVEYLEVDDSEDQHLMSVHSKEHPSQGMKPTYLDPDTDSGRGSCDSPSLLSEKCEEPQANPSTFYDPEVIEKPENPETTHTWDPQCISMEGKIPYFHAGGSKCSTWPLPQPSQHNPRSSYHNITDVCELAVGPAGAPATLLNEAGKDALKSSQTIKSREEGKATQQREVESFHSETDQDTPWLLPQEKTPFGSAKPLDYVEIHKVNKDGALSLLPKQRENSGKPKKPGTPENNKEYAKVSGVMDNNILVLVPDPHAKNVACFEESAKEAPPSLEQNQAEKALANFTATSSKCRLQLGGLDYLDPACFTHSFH

[2] = target: T1, human prolactin receptor (PRLR) expressed on cells (human); assay: cell-based or functional assay

MFI [1] [MFI]	pERK1/2 inhibition IC50 [2]	Molecule
33.8		mAb 1167, control murine anti-PRLR monoclonal antibody (R&D Systems, catalog # MAB 1167)
	0.11	B1
